# Laboratory results taken from patent publication US20190351013.
# Molecular target: HPV16 L2 minor capsid protein (UniProt P03107)
# Sequence (P03107 whole entry): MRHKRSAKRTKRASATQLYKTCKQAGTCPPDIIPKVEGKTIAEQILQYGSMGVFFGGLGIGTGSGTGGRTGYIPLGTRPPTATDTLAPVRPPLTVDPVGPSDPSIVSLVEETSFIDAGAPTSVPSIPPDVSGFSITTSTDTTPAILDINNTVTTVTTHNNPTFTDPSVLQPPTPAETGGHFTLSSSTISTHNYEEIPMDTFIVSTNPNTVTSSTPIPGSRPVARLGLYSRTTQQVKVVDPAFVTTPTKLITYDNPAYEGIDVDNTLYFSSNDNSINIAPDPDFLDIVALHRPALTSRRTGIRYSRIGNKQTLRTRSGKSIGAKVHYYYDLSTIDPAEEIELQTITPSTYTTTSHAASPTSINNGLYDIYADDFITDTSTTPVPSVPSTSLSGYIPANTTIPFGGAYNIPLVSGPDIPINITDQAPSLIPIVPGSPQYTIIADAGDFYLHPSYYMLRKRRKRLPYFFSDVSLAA
substance,measurement,value
recombinant His-furin,"cleavage of HPV16 L2 by furin, immunoblot with anti-HPV16 polyclonal antibody",furin cleaves the L2 protein in the absence of polyR and FI
